The text below walks through data of patent US20220089721A1 (Bayer, published 2022).

In test [1] the target is T cell immunoglobulin domain and mucin domain 3 (TIM-3) (human) (UniProt Q8TDQ0). Nature of the test: cell-based or functional assay.
The target in test [2] is T1, human CEACAM6 (carcinoembryonic antigen-related cell adhesion molecule 6) (human, UniProt P40199 35-320).
T1 sequence (looked up): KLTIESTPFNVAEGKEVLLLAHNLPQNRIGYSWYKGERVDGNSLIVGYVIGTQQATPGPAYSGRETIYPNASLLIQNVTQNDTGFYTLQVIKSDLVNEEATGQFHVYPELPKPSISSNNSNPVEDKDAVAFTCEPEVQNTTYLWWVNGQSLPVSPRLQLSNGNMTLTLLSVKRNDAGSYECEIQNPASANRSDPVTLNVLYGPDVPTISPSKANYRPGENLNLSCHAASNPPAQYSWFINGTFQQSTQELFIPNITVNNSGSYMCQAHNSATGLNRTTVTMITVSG
The test can be described thus: cell-based or functional assay.

On to “MAB2365 (rIgG2, R&D Jackson Immunoresearch), anti-TIM3 antibody”, for which, in test [1], the IFN-γ in pg/ml, absolute mean, TC + HCC + 0.5 µg/ml FLU pep + 50 µg/ml antibody (isotype Mab006: 735.0) turned out to be 925 pg/mL; the IFNg [pg/ml], isotype corrected, FluM1 T cells + HCC2935, single agent 50 µg/ml, experiment 1 turned out to be 65 pg/mL; the IFNg [pg/ml], isotype corrected, FluM1 T cells + HCC2935, single agent 50 µg/ml, experiment 2 came to 67.7 pg/mL; the IFNg [pg/ml], isotype corrected, FluM1 T cells + HCC2935, single agent 50 µg/ml, experiment 3 amounted to 37 pg/mL. Also, in test [1], the IFNg [pg/ml], isotype corrected, FluM1 T cells + HCC2935, single agent 50 µg/ml, experiment 4 is 247 pg/mL; the IFNg [pg/ml], isotype corrected, FluM1 T cells + HCC2935, single agent 50 µg/ml, experiment 5 is 287 pg/mL; the IFNg [pg/ml], isotype corrected, FluM1 T cells + HCC2935, single agent 50 µg/ml, experiment 6 was determined as 288 pg/mL; the IFNg [pg/ml], isotype corrected, FluM1 T cells + HCC2935, single agent 50 µg/ml, experiment 7 was 278 pg/mL. Further, in test [1], the IFNg [pg/ml], isotype corrected, FluM1 T cells + HCC2935, single agent 50 µg/ml, mean of n = 7 was determined as 182 pg/mL; the Mean IFNg (pg/ml), isotype corrected, survivin-peptide specific T cells + HCC2935 lung cells, single agent 50 µg/ml, n = 1 was 63.6 pg/mL; the Mean IFNg (pg/ml), isotype corrected, survivin-peptide specific T cells + KS breast cancer cells, single agent 50 µg/ml, n = 1 was determined as 18.3 pg/mL.

B1: anti-CEACAM6 antibody TPP-3310 (antibody, human IgG2, kappa, V domains shown)
VH: QVTLRESGPALVKPTQTLTLTCTFSGFSLSTYGIGVGWIRQPPGKALEWLAHIWWNDNKYYSTSLKTRLTISKDTSKNQVVLTMTNMDPVDTATYYCARISLPYFDYWGQGTTLTVSS
VL: DIQLTQSPSFLSASVGDRVTITCKASQNVGTAVAWYQQKPGKAPKLLIYSASNRYTGVPSRFSGSGSGTEFTLTISSLQPEDFATYYCQQYSSYPLTFGGGTKVEIKR
For B1, the “half-maximal effective concentration (EC50) for activation of T cells in co-culture” value in test [2] was roughly 1 µg/mL.
